# Experimental data from paper PMC7158967, “Comparative evaluation of ^68Ga-labelled TATEs: the impact of chelators on imaging” (EJNMMI Research, 2020).
# Read-outs that look alike come from different tables or passages of the source.
# Key:
# [1] = Lipid-water partition (log Po/w), octanol water system; assay type: physicochemical
# Experimental: The lipid-water partition (logP) of ^68Ga-labelled complexes was determined in the octanol water system by following the procedure mentioned below. In brief, 490 μL of ultrapure water was added to each of three centrifuge tubes containing 0.5 mL of saturated n-octanol and then combined with 10 μL (1.85 MBq/0.05 mCi) of freshly prepared radiolabelled complexes by ultrasonication (3 min). The centrifuge tube was allowed to stand for approximately 1 min for the liquid to become stratified. The upper and lower liquids were defined as groups A (A1, A2, A3) and B (B1, B2, B3), accounting for the organic and aqueous phases, respectively. Then, 0.1 mL was retrieved from each of the 6 sections. The radioactivity (CPM) of both phases was determined using a gamma counter, and the lipid-water partition coefficient was calculated as follows: logP = log (A-background)/(B-background). The average of three tubes was recorded as the logP.
# [2] = assay type: in vitro ADME; conditions: human
# Experimental: In vitro serum binding studies for both ^68Ga-labelled NOTA-TATE and DOTA-TATE were carried out by following a generalized procedure summarized below. One millilitre of fresh anticoagulated (heparinized) human plasma was prepared. Freshly labelled compound (3.7 MBq, 0.1 mCi) was added to three centrifuge tubes, each containing 0.1 mL of human plasma. After incubation at 37 °C for 2 h, 1 mL of ice-cold methanol was added to each tube. The mixtures were separated by centrifugation (5 min, 3000 rpm) to collect the supernatant, which was repeated three times. A gamma counter was then used to measure the radioactivity of the supernatant (A) and the precipitate (B) in counts per minute (CPM); the plasma-protein binding rate was calculated as PPB = B/(A + B)100%, and the average of three tubes was recorded.
# [3] = Biodistribution in AR42J tumour-bearing nude mice; conditions: mouse, in vivo
# Experimental: (§1) Tumour cells were subcutaneously injected into the left forelimb of each nude mouse. Biodistribution and imaging studies were conducted when the tumour volume reached at least 1.0 × 1.0 × 1.0 cm^3.
# [4] = Micro-PET/CT imaging of AR42J tumour-bearing nude mice; conditions: both sexes, nude, mouse, in vivo, iv, 2.96 MBq, total radioactivity
# Experimental: as §1
# (§2) Six (3 female and 3 male) mice with AR42J tumour xenografts (15–20 g) were used in the imaging study. All tumour-bearing mice were anaesthetized by intranasal inhalation of isoflurane. […] Images were acquired and reconstructed using micro-PET/CT at 30 min and 2 h after intravenous injection.
# [5] = test system: AR42J tumour-bearing mice; assay: as above; conditions: mouse, in vivo
# Experimental: as §1, §2
# clinical = conditions: human, in vivo, total radioactivity
# Experimental: (§3) Twenty-two healthy volunteers gave informed consent and agreed to participate in the study. […] Each patient was injected with an average activity of 1.9 MBq/kg. The timing of image acquisition ranged from 30 to 45 min after injection (3 min/bed position). The PET image was attenuated and then reconstructed using the iterative reconstruction algorithm implemented.
# healthy volunteers = assay: clinical; conditions: human, in vivo
# Experimental: as §3
# SSTR2 = test system: SSTR2; set-up: method as in PMID 28864614; conditions: read-out: half inhibitory concentration (IC50) on SSTR2; cited from earlier work
# [6] = cited from earlier work
compound,measurement,setting,value
"C[C@@H](O)[C@H](NC(=O)[C@@H]1CSSC[C@H](NC(=O)[C@@H](Cc2ccccc2)NC(=O)CN2CCN(CC(=O)O)CCN(CC(=O)O)CCN(CC(=O)O)CC2)C(=O)N[C@@H](Cc2ccc(O)cc2)C(=O)N[C@H](Cc2c[nH]c3ccccc23)C(=O)N[C@@H](CCCCN)C(=O)N[C@@H]([C@@H](C)O)C(=O)N1)C(=O)O [^68Ga-DOTA-TATE, metal not drawn]",log Po/w (partition coefficient),[1],− 2.72 ± 0.16
same,fraction unbound,[2],0.694
same,tissue uptake at 0.25 h,[3]; %ID/g Blood,3.03 ± 1.96 %ID/g
same,tissue uptake at 1 h,[3]; %ID/g Blood,0.35 ± 0.2 %ID/g
same,tissue uptake at 2 h,[3]; %ID/g Blood,0.05 ± 0.02 %ID/g
same,tissue uptake at 0.25 h,[3]; %ID/g Gallbladder,1.47 ± 0.62 %ID/g
same,tissue uptake at 0.25 h,[3]; %ID/g Intestines,1.56 ± 1.47 %ID/g
same,tissue uptake at 0.5 h,[3]; %ID/g Intestines,1.58 ± 1.77 %ID/g
same,tissue uptake at 2 h,[3]; %ID/g Intestines,0.23 ± 0.15 %ID/g
same,tissue uptake at 0.25 h,[3]; %ID/g Kidney,10.3 ± 8.89 %ID/g
same,tissue uptake at 0.5 h,[3]; %ID/g Kidney,8.12 ± 2.71 %ID/g
same,tissue uptake at 1 h,[3]; %ID/g Kidney,2.82 ± 2.54 %ID/g
same,tissue uptake at 2 h,[3]; %ID/g Kidney,1.49 ± 0.57 %ID/g
same,tissue uptake at 0.25 h,[3]; %ID/g Liver,1.27 ± 0.77 %ID/g
same,tissue uptake at 0.5 h,[3]; %ID/g Liver,0.61 ± 0.35 %ID/g
same,tissue uptake at 1 h,[3]; %ID/g Liver,0.34 ± 0.25 %ID/g
same,tissue uptake at 2 h,[3]; %ID/g Liver,0.08 ± 0.07 %ID/g
same,tissue uptake at 0.5 h,[3]; %ID/g Lungs,2.86 ± 1.47 %ID/g
same,tissue uptake at 1 h,[3]; %ID/g Lungs,4.62 ± 3.42 %ID/g
same,tissue uptake at 2 h,[3]; %ID/g Lungs,0.98 ± 0.22 %ID/g
same,tissue uptake at 0.25 h,[3]; %ID/g Muscle,1.18 ± 1.26 %ID/g
same,tissue uptake at 2 h,[3]; %ID/g Muscle,0.04 ± 0.01 %ID/g
same,tissue uptake at 0.25 h,[3]; %ID/g Skeleton,1.94 ± 0.81 %ID/g
same,tissue uptake at 0.5 h,[3]; %ID/g Skeleton,1.1 ± 0.63 %ID/g
same,tissue uptake at 1 h,[3]; %ID/g Skeleton,0.8 ± 0.73 %ID/g
same,tissue uptake at 2 h,[3]; %ID/g Skeleton,0.17 ± 0.06 %ID/g
same,tissue uptake at 0.25 h,[3]; %ID/g Spleen,3.84 ± 4.03 %ID/g
same,tissue uptake at 0.5 h,[3]; %ID/g Spleen,1.48 ± 0.84 %ID/g
same,tissue uptake at 1 h,[3]; %ID/g Spleen,1.92 ± 1.75 %ID/g
same,tissue uptake at 2 h,[3]; %ID/g Spleen,0.21 ± 0.19 %ID/g
same,tissue uptake at 0.25 h,[3]; %ID/g Stomach,4.24 ± 2.66 %ID/g
same,tissue uptake at 0.5 h,[3]; %ID/g Stomach,0.98 ± 0.49 %ID/g
same,tissue uptake at 1 h,[3]; %ID/g Stomach,4.26 ± 2.58 %ID/g
same,tissue uptake at 0.5 h,[3]; %ID/g Tumour,3.62 ± 1.94 %ID/g
same,tissue uptake at 1 h,[3]; %ID/g Tumour,3.14 ± 2.07 %ID/g
same,tissue uptake at 2 h,[3]; %ID/g Tumour,2.3 ± 1.34 %ID/g
same,SUV at 0.5 h,[4],2.87 SUV
same,SUV at 2 h,[4],1.83 SUV
same,gallbladder radioactivity on micro-PET/CT,[5],minimal gallbladder activity
same,SUV,"clinical; both sexes, 1.9 MBq/kg, SUVmax Adrenals, average",15.2 SUV
same,SUV,"clinical; both sexes, 1.9 MBq/kg, SUVmax Blood pool, average",0.9 SUV
same,SUV,"clinical; both sexes, 1.9 MBq/kg, SUVmax Bone marrow, average",0.8 SUV
same,SUV,"clinical; both sexes, 1.9 MBq/kg, SUVmax Kidneys, average",14.5 SUV
same,SUV,"clinical; both sexes, 1.9 MBq/kg, SUVmax Large bowel, average",2.2 SUV
same,SUV,"clinical; both sexes, 1.9 MBq/kg, SUVmax Liver, average",10.1 SUV
same,SUV,"clinical; both sexes, 1.9 MBq/kg, SUVmax Lungs, average",0.8 SUV
same,SUV,"clinical; both sexes, 1.9 MBq/kg, SUVmax Lymph nodes, average",1.1 SUV
same,SUV,"clinical; both sexes, 1.9 MBq/kg, SUVmax Palatine tonsil, average",2.6 SUV
same,SUV,"clinical; both sexes, 1.9 MBq/kg, SUVmax Pancreas, average",6.2 SUV
same,SUV,"clinical; both sexes, 1.9 MBq/kg, SUVmax Small bowel, average",3.4 SUV
same,SUV,"clinical; both sexes, 1.9 MBq/kg, SUVmax Spleen, average",26.9 SUV
same,SUV,"clinical; both sexes, 1.9 MBq/kg, SUVmax Stomach, average",6.1 SUV
same,SUV,"clinical; both sexes, 1.9 MBq/kg, SUVmax Submandibular, average",3.4 SUV
same,SUV,"clinical; both sexes, 1.9 MBq/kg, SUVmax Thymus, average",1.2 SUV
same,SUV,"clinical; both sexes, iv, 1.9 MBq/kg, SUVmax Breast, average",0.6 SUV
same,SUV,"clinical; iv, 2.52 mCi, SUVmax kidney, single volunteer",13.9 SUV
same,SUV,"clinical; iv, 2.52 mCi, SUVmax liver, single volunteer",9.4 SUV
same,SUV,"clinical; iv, 2.52 mCi, SUVmax pituitary, single volunteer",7.74 SUV
same,SUV,"clinical; iv, 2.52 mCi, SUVmax spleen, single volunteer",25.5 SUV
same,SUV,"clinical; iv, 2.8 mCi, SUVmax liver, single volunteer",7.8 SUV
same,SUV,"clinical; iv, 2.8 mCi, SUVmax spleen, single volunteer",16.3 SUV
same,"SUVmax Blood pool, range",healthy volunteers,0.6~1.4
same,"SUVmax Bone marrow, range",healthy volunteers,0.5~1.3
same,"SUVmax Kidneys, range",healthy volunteers,11.2~17.8
same,"SUVmax Large bowel, range",healthy volunteers,1.6~3.7
same,"SUVmax Lungs, range",healthy volunteers,0.5~1.3
same,"SUVmax Palatine tonsil, range",healthy volunteers,1.2~4.1
same,"SUVmax Parotid gland, range",healthy volunteers,1.9~5.4
same,"SUVmax Pituitary gland, range",healthy volunteers,2.4~7.9
same,"SUVmax Small bowel, range",healthy volunteers,2.2~4.9
same,"SUVmax Spleen, range",healthy volunteers,20.1~33.5
same,"SUVmax Stomach, range",healthy volunteers,3.1~8.3
same,"SUVmax Submandibular, range",healthy volunteers,1.7~5.7
same,"SUVmax Thymus, range",healthy volunteers,0.7~1.5
same,"SUVmax kidneys, single value",healthy volunteers,17.8
same,"SUVmax lung tissue, single value",healthy volunteers,1.3
same,"SUVmax pituitary gland, single value",healthy volunteers,7.9
same,"SUVmax spleen, single value",healthy volunteers,33.5
same,"SUVmax stomach wall, single value",healthy volunteers,8.3
same,radioactivity in the gallbladder,healthy volunteers,No radioactivity was seen
same,uptake in the brain,healthy volunteers,not taken up in the brain
"O=C(O)CN1CCN(CC(=O)O)CCN(CC(=O)O)CC1 [NOTA, 1,4,7-triazacyclononane-1,4,7-triacetic acid]",log stability constant of the ^68Ga complex,"[6]; NOTA ^68Ga complex, octahedral",30.98
"O=C(O)CN1CCN(CC(=O)O)CCN(CC(=O)O)CCN(CC(=O)O)CC1 [DOTA, 1,4,7,10-tetraazacyclododecane-1,4,7,10-tetraacetic acid]",log stability constant of the ^68Ga complex,"[6]; DOTA ^68Ga complex, pseudo-octahedral geometry",21.33
